Reference: publication PMC12445079
Values belong to the binder of their own block, whether it stands above or below them.

Target: Bacillus subtilis GapA (glyceraldehyde-3-phosphate dehydrogenase), His-tagged (Bacillus subtilis) (UniProt P09124)
Sequence of UniProt P09124 (P09124 whole entry): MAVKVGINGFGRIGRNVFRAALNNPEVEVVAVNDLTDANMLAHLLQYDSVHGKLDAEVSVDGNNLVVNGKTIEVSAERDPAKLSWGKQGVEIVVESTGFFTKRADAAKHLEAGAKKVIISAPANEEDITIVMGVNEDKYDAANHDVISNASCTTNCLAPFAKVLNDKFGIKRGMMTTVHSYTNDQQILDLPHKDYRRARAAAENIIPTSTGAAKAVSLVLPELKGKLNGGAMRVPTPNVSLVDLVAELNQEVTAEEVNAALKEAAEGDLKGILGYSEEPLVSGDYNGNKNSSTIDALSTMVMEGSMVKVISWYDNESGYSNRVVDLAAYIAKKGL

B3: Bacillus subtilis histidine-containing phosphocarrier protein (HPr), His-tagged (natural protein)
chain: MAQKTFKVTADSGIHARPATVLVQTASKYDADVNLEYNGKTVNLKSIMGVMSLGIAKGAEITISASGADENDALNALEETMKSEGLGE
catalytic efficiency kcat/KM of GapA with E4P in the presence of HPr (GAPDH alone: 1.05): 1880 M⁻¹ s⁻¹
catalytic efficiency kcat/KM of GapA with G3P in the presence of HPr (GAPDH alone: 219): 57400 M⁻¹ s⁻¹

B4: Bacillus subtilis HPr-S46E, His-tagged (natural protein)
chain: MAQKTFKVTADSGIHARPATVLVQTASKYDADVNLEYNGKTVNLKEIMGVMSLGIAKGAEITISASGADENDALNALEETMKSEGLGE
catalytic efficiency kcat/KM of GapA with E4P in the presence of HPr-S46E (GAPDH alone: 1.05): 2600 M⁻¹ s⁻¹
catalytic efficiency kcat/KM of GapA with G3P in the presence of HPr-S46E (GAPDH alone: 219): 38800 M⁻¹ s⁻¹

Other lines, results leading:

catalytic efficiency kcat/KM of GapA with E4P in the presence of HPr-G54D (GAPDH alone: 1.05): 730 M⁻¹ s⁻¹
catalytic efficiency kcat/KM of GapA with G3P in the presence of HPr-G54D (GAPDH alone: 219): 68500 M⁻¹ s⁻¹
B1: Bacillus subtilis HPr-G54D, His-tagged (natural protein)
chain: MAQKTFKVTADSGIHARPATVLVQTASKYDADVNLEYNGKTVNLKSIMGVMSLDIAKGAEITISASGADENDALNALEETMKSEGLGE

catalytic efficiency kcat/KM of GapA with E4P in the presence of HPr-G54D, S46E (GAPDH alone: 1.05): 3780 M⁻¹ s⁻¹
catalytic efficiency kcat/KM of GapA with G3P in the presence of HPr-G54D, S46E (GAPDH alone: 219): 164000 M⁻¹ s⁻¹
B2: Bacillus subtilis HPr-S46E, G54D, His-tagged (natural protein)
chain: MAQKTFKVTADSGIHARPATVLVQTASKYDADVNLEYNGKTVNLKEIMGVMSLDIAKGAEITISASGADENDALNALEETMKSEGLGE
